Laboratory results published in PMC10838295.

Molecular target: pyrrolated BSA (pyrBSA), P02769
Assay: ELISA
Conditions: chain shown with the change, left panel, antigen pyrBSA, read off a plot

Sequence of pyrrolated BSA (pyrBSA), P02769 (P02769 25-607): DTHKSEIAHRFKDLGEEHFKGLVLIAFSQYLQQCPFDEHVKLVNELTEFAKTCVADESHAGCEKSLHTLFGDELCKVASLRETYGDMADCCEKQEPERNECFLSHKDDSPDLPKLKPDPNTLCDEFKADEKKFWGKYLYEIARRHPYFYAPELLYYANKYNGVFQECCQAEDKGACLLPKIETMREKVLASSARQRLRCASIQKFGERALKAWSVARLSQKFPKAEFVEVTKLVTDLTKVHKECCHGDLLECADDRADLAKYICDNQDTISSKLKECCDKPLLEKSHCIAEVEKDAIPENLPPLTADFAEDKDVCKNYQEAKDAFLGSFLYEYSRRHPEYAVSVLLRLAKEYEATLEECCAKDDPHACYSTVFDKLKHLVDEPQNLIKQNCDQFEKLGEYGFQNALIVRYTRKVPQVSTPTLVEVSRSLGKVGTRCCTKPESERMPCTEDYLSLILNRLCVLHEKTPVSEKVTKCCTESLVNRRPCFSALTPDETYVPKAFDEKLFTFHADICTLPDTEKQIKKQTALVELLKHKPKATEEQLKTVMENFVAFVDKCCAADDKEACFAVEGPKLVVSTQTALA

B1: VH DO1 (VH-His6 of scFv DO1) R97A (protein)
chain: EVQLQQSGPELVKPGASVKMSCKASGYTFTSYVMHWVKQKPGQGLEWIGYINPHNDGTKYNEKFKGKATLTSDKSSSTAYMELSSLTSEDSAVYYCARKLAGFAYWGQGTLVTVSS
response (VH about 6.4 nM (4th point of the titration, read from the log x axis), parent: est. 1.7): 0.65 Abs (490 nm) | response (VH about 16 nM (5th point of the titration, read from the log x axis), parent: est. 3.1): 1.9 Abs (490 nm)
